# Assay results as given in patent US20220056139A1 (UNIVERSITY OF SOUTHERN CALIFORNIA, published 2022).
# B1: huLym-1-B-DAP CAR (Experiment 3, with 261 tag) (receptor)
# chain: EVQLVESGGGLVQPGRSLRLTCTASGFSLTSYGVHWVRQPPGKGLEWLAVIWSDGSTTYNSALKSRLTISKDNSKSQVYLQMNSLRAEDTAVYYCARHYGSTLAFASWGQGTLVTVSSGGGGSGGGGSGGGGSDIQMTQSPSSLSASVGDRVTITCRASVNIYSYLAWYQQKPGKAPNLLIYNAKILAEGVPSRFSGSGSGTDFTLTISSLQPEDFASYYCQHHYGTFTFGQGTKVEIKAVPPQQWALSTTTPAPRPPTPAPTIASQPLSLRPEACRPAAGGAVHTRGLDFACDIYIWAPLAGTCGVLLLSLVITLYCLCARPRRSPAQDGKVYINMPGRGYFLGRLVPRGRGAAEAATRKQRITETESPYQELQGQRSDVYSDLNTQRPYYK
# B2: huLym-1-B-BB3z CAR (receptor)
# chain: EVQLVESGGGLVQPGRSLRLTCTASGFSLTSYGVHWVRQPPGKGLEWLAVIWSDGSTTYNSALKSRLTISKDNSKSQVYLQMNSLRAEDTAVYYCARHYGSTLAFASWGQGTLVTVSSGGGGSGGGGSGGGGSDIQMTQSPSSLSASVGDRVTITCRASVNIYSYLAWYQQKPGKAPNLLIYNAKILAEGVPSRFSGSGSGTDFTLTISSLQPEDFASYYCQHHYGTFTFGQGTKVEIKAVPPQQWALSTTTPAPRPPTPAPTIASQPLSLRPEACRPAAGGAVHTRGLDFACDIYIWAPLAGTCGVLLLSLVITLYCKRGRKKLLYIFKQPFMRPVQTTQEEDGCSCRFPEEEEGGCELRVKFSRSADAPAYKQGQNQLYNELNLGRREEYDVLDKRRGRDPEMGGKPRRKNPQEGLYNELQKDKMAEAYSEIGMKGERRRGKGHDGLYQGLSTATKDTYDALHMQALPP
# Biological target: HLA-DR (human)
# Experiment: cell-based or functional assay
Binder,"killing of Raji cells at 2:1 effector to target ratio, overnight co-culture [%]",fold expansion of CAR T cells from days 7-14 [fold]
B1,~80,
B2,,< 4
